The values below come from the DeepSol protein solubility set.

This series in a line: soluble on expression in E. coli; label from the status in PepcDB or PDB records.
As for “MTDIGAPVTVQVAVDPPYPVVIGTGLLDELEDLLADRHKVAVVHQPGLAETAEEIRKRLAGKGVDAHRIEIPDAEAGKDLPVVGFIWEVLGRIGIGRKDALVSLGGGAATDVAGFAAATWLRGVSIVHLPTTLLGMVDAAVGGKTGINTDAGKNLVGAFHQPLAVLVDLATLQTLPRDEMICGMAEVVKAGFIADPVILDLIEADPQAALDPAGDVLPELIRRAITVKAEVVAADEKESELREILNYGHTLGHAIERRERYRWRHGAAVSVGLVFAAELARLAGRLDDATAQRHRTILSSLGLPVSYDPDALPQLLEIMAGDKKTRAGVLRFVVLDGLAKPGRMVGPDPGLLVTAYAGVCAP”, the “soluble on expression in E. coli” value was “not soluble”.
The value for “MTDNLLSISAACLFDDQGNLLLVRKRGTQAFMLPGGKREPGETPLAALQRELLEELRLPMGASTFEHLGSFQAPAANEANTRVDADIYVARLPHAVCAQAELEELAWLVPGQAQPDNLAPLLRDHVLPALARRAAENPETQAEHRTRPDHVR” was “not soluble”.
On to “MTDQQRRVVFMATSLLLDYPDDRWEDIIDAVSVQIDDLPKNTRQQFVQFLTAVRVMGRRGMEQHYVECFDQRRRCSLFLSYYAVGDTRQRGAAILAFQESLETLGFFLEREELPDHLCVVLEVAAKAEGLAHHVATDMLAAHRDGIEVLRVALEHSDSPYSRLVAAVCSALPDIDEETRKNFVDLIRSGPPAELIGIESPLPFPTATNV”, for which the “soluble on expression in E. coli” value is on record as “not soluble”.
Consider “MTDVKNDVNVSSVVDADGLIEGNYDQVVESFDDMELKEELLRGIYGFGFEKPSAIQKRAIVPCTTGKDVIAQAQSGTGKTATFSVSILQRIDHEDPHVQALVMAPTRELAQQIQKVMSALGEYLNVNILPCIGGTSVRDDQRKLEAGIHVVVGTPGRVGDMINRNALDTSRIKMFVLDEADEMLSRGFKDQIYEVFRSMPQDVQVVLLSATMPSEVLDVTNRFMRNPIRILVKKDELTLEGIRQFYINVQKDEWKFDCLCDLYNVVNVTQAVIFCNTRRKVDTLTEKMTENQFTVSCLHGDMDQAERDTIMREFRSGSSRVLITTDILARGIDVQQVSLVINYDLPSNRENYIHRIGRSGRFGRKGVAINFVTENDARQLKEIESYYTTQIEEMPESIADLI”, for which the “soluble on expression in E. coli” value is on record as “not soluble”.
As to “MTDVPALEIKNLHKTFGQNEVLKGISLQAQKGDVISIIGSSGSGKSTFLRCINLLETPTAGEIWVKGELIQMKTTRQGTVQPAKEKQVQRIRSRLAMVFQSFNLWSHMTVLENVIEAPVHVLGVPKAQAIEQAERLLRKVGLYERKDYYPGHLSGGQQQRAAIARALAVEPEVMLFDEPTSALDPELVGEVLGVMRDLAEEGRTMLVVTHEMAFARDVSNHVMFLHQGKVEEQGKPEKLFKNPDSERLKQFISSIY”, the “soluble on expression in E. coli” value was “not soluble”.
As to “MTDVYIAAGLRTPIGLVGKQFAKEQPEILGAKLINALQNKYPVPIDQVICGNTVGTGGNIGRLMTLYSHLGESVSALTVDMQCASAGAALSVGYAKIKAGMASNLLVGGIESSSLQPESVYASADWRQGAYKVAQFSPDSISPFAMIEGAERVAREHGFTKEYLNHWTLRSHQKASYCQEQALLADLILDLSGASDQGIRPRLSSKVLSKVPPILGEGHVISAANACLTHDAAAFLQLSSQPSAFKLIDVVEVAGDPQRSPLMVIKASQVLLEKHGLGMADMTAIEWNEAFAVIDGLFETHYPDLLDRYNIFGGALAYGHPYGASAAIIILHLMRALEIKNGRYGIAAIAAAGGQGFAVLLKYHKEFSHADKARILGKAMPK”, the “soluble on expression in E. coli” value is given as “not soluble”.
With “MTDYLADVQKYDSSADEAVVNKIVRHLGIALRNKDSALVSASDPKELERVREKWCEKKLGVGGSDADAAIAATAKAMADDRSKSRVTFYYLVAKNLGKLQTL”, the “soluble on expression in E. coli” value is listed as “not soluble”.
With “MTEASEINLSDIKGPIDVNTPITNHRTALIQNYSTKPKLTYQTVFGVNGPLVIVHNVKFPMFNEIVKITLPNGQIRMGQVLESSKNKAVVQVFEGTTGVDAKFTTCEFTGDIFRSPVSLDMLGRIFNGSGKPIDKGPPVLPEDYLDINGQPINPFNRIYPEEMIQTGISAIDVMNSIARGQKIPIFSAAGLPHNEIAAQIVRQGGLVQLPGRNNETVNFAIVFAAMGVNMETARFFKQDFEECGSMDNVCLFLNLANDPTIERIITPRIALTAAEFFAYHCGKHVLVVLTDMSSYAEALREISAAREEVPGRRGFPGYMYTDLATIYERAGRVKGREGSITQIPILTMPNNDITHPIPDLTGYITEGQIYIDKQLHKRLIYPPIDVLPSLSRLMKSAVGEGMTREDHSDLSNQLYACYAMGKDVQAMKAVVGVEALSPDDLLYLEFLAKFEKNFIAQGRYENRTIVESLNIGWELLRIFPREMLKRIPETLLEKYYKRKKQ” the entry was “not soluble”.
On to “MTEHTSSYYAASANKYAPFDTLNESITCDVCVVGGGYTGLSSALHLAEAGFDVVVLEASRIGFGASGRNGGQLVNSYSRDIDVIEKSYGMDTARMLGSMMFEGGEIIRERIKRYQIDCDYRPGGLFVAMNDKQLATLEEQKENWVRYGNKQLELLDVNAIRREVASDRYTGALLDHSGGHIHPLNLAIGEADAIRLNGGRVYELSAVTQIQHTTPAVVRTANGQVTAKYVIVAGNAYLGDKVEPELAKRSMPCGTQVITTERLSEDLARSLIPKNYCVEDCNYLLDYYRLTADNRLLYGGGVVYGARNPDDVERLVVPKLLKTFPQLKGVKIDYRWTGNFLLTLSHMPQFGRLDTNIYYMQGYSGHGVTCTHLAGRLIAELLRGDAERFDAFANLPHYPFPGGRTLRVPFTAMGAAYYSLRDRLGV”, for which the “soluble on expression in E. coli” value was “not soluble”.
For the sequence “MTEIQKPYDLKGRSLLKESDFTKAEFEGLIDFAITLKEYKKNGIKHHYLSGKNIALLFEKNSTRTRAAFTVASIDLGAHPEFLGKNDIQLGKKESVEDTAKVLGRMFDGIEFRGFSQQAVEDLAKFSGVPVWNGLTDDWHPTQMLADFMTIKENFGYLEGINLTYVGDGRNNIAHSLMVAGAMLGVNVRICTPKSLNPKEAYVDIAKEKASQYGGSVMITDNIAEAVENTDAIYTDVWVSMGEESEFEQRINLLKDYQVNQQMFDLTGKDSTIFLHCLPAFHDTNTLYGQEIYEKYGLAEMEVTDQIFRSEHSKVFDQAENRMHTIKAVMAATLGS”, the “soluble on expression in E. coli” value is recorded as “not soluble”.
As for “MTEKGRAIEEESFRIVDQEAGPHGFSPLEWPVVRRMIHATADFEYKALTRFSQGAVEAGLKAIQAGARILVDARMIACGLNPERLRLFGNEVVELLAHPEVVARAKATGGTRAEAAVAYAWEKGLLDGAIVGVGNAPTFLLALVEAIRQGARPALVLGMPVGFVNVLEAKRALMEAPVPWIVTEGRKGGSTLVVAALHALIRLAADGGVDTSRAYREG”, the “soluble on expression in E. coli” value is “soluble”.
As to “MTEKLAVFTGKLAEAGVLNETQPLSMRLHLENIQAESDPESIVPLFSHGVILNILVEQLEESIPLSHLKKGTKVRFTVVGLPPMTMSIPPHVGGQAIELIEEI”, the “soluble on expression in E. coli” value was “not soluble”.
With “MTELAQLQASTEQAAALLKAMSHPKRLLILCMLSGSPGTSAGELTRITGLSASATSQHLARMRDEGLINSQRDAQRILYSIKNEAVNAIIATLKNVYCP” the entry was “not soluble”.
For the sequence “MTEMSFLSSEVLVGDLMSPFDQSGLGAEESLGLLDDYLEVAKHFKPHGFSSDKAKAGSSEWLAVDGLVSPSNNSKEDAFSGTDWMLEKMDLKEFDLDALLGIDDLETMPDDLLTTLDDTCDLFAPLVQETNKQPPQTVNPIGHLPESLTKPDQVAPFTFLQPLPLSPGVLSSTPDHSFSLELGSEVDITEGDRKPDYTAYVAMIPQCIKEEDTPSDNDSGICMSPESYLGSPQHSPSTRGSPNRSLPSPGVLCGSARPKPYDPPGEKMVAAKVKGEKLDKKLKKMEQNKTAATRYRQKKRAEQEALTGECKELEKKNEALKERADSLAKEIQYLKDLIEEVRKARGKKRVP”, the “soluble on expression in E. coli” value was “soluble”.
With “MTENNKLQTIEQQLVQEKNVSDNVLNKVRVLESQGNLELPNDYSPSNAMKQAWLQISQDNKLMSCNDTSKANALLDMVTQGLNPAKNQCYFIPYGNKMQLQRSYHGNVMMLKRDAGAQDVVAQVIYKGDTFKQEMGETGRIKAIKHEQDFFNIDKENIIGAYCTIVFNDGRDNYIEVMTIEQIKQAWMQSSMIKDEKALQNSKTHNNFKEEMAKKTVINRAAKRYINTSTDSNLFKYAQESEQRQRKEVLDAEVEENANQEQLDFEQPVLEEAQYTELENDKPIDVSDFEEIKEPATEKESEEEPF”, the “soluble on expression in E. coli” value is recorded as “not soluble”.
On to “MTENNRLSVKLPGLDLKNPIIPASGCFGFGEEYAKYYDLNKLGSIMVKATTLHPRFGNPTPRVAETASGMLNAIGLQNPGLEVIMTEKLPWLNENFPELPIIANVAGSEEADYVAVCAKIGDAANVKAIELNISCPNVKHGGQAFGTDPEVAAALVKACKAVSKVPLYVKLSPNVTDIVPIAKAVEAAGADGLTMINTLMGVRFDLKTRQPILANITGGLSGPAIKPVALKLIHQVAQDVDIPIIGMGGVANAQDVLEMYMAGASAVAVGTANFADPFVCPKIIDKLPELMDQYRIESLESLIQEVKEGKK”, for which the “soluble on expression in E. coli” value is recorded as “soluble”.
As to “MTEPIFMVGARGCGMTTVGRELARALGYEFVDTDIFMQHTSGMTVADVVAAEGWPGFRRRESEALQAVATPNRVVATGGGMVLLEQNRQFMRAHGTVVYLFAPAEELALRLQASLQAHQRPTLTGRPIAEEMEAVLREREALYQDVAHYVVDATQPPAAIVCELMQTMRLPAA”, the “soluble on expression in E. coli” value is listed as “soluble”.
The value for “MTERFDCHHCNESLFGKKYILREESPYCVVCFETLFANTCEECGKPIGCDCKDLSYKDRHWHEACFHCSQCRNSLVDKPFAAKEDQLLCTDCYSNEYSSKCQECKKTIMPGTRKMEYKGSSWHETCFICHRCQQPIGTKSFIPKDNQNFCVPCYEKQHAMQCVQCKKPITTGGVTYREQPWHKECFVCTACRKQLSGQRFTARDDFAYCLNCFCDLYAKKCAGCTNPISGLGGTKYISFEERQWHNDCFNCKKCSLSLVGRGFLTERDDILCPDCGKDI” was “soluble”; that for “MTESITRDSMQYDVVIVGAGPSGLSAAIKLKQLAEQNGREISVCVVEKGSEVGAHSLAGAVIDPIALNELISDWKEKGAPLTRTVTQDKVLFLTEKKAFNLPITPNFDNHGNYIVSLGEVVRWLAEQAENMGVEIYPGFAAAEVLYHEDGSVKGIATGNMGIGKDGEPTDSFQPGMELWAQQTLFAEGCRGSLSKQIIERFQLDQNSQPQTYGLGIKEVWEVPSEQHQPGLVVHSAGWPLDSKTYGGAFVYHFDDNKVAVGFVVGLDYQNPYLSPFEEFQRFKTHPEIRKTFEGGRRIAYGARSLIEGGLQSLPKLSFKGGILVGDAAGFLNMPRIKGIHTAMKSAMLAAEAVFPLLENLEEVEGFDSGKEAADYQQRFEQSWLYQELYAARNVRPSFKWGVYLGSIYTGIDQMIFRGKAPWTLKHHGKDNEQLKKAAACKPIDYPKPDGVLTFDRLSSVFLANLAHEENQPDHLVLNNPQTMIDVNYKEYASPETRYCPAGVYEIVEENGNPRLQINAANCVHCKTCDIKDPTQNITWICPEGASGPNYGGM” was “not soluble”.
For “MTESLNRDLPVLLATLNKLSSDADRILLENREDIRKIAYNLSIVMEKVKDDLPVLVENLKELSVNLNTVVKNNKVNINKTLVSLRKTTENLSRASYKLDKILADLESGKGTLGKLLKDEELYENVNQGVKALGKAGKVVEKTQLYIGLRGELYREGDSKGILSVRLVPDRDKYYLLEVVGDSRGRVYREEYLDGREVVKKEFKPEFTLQYARNFSLFGRTLTLRGGLKENTGGVGADYYIYRDKYLFADLWDFGRKDRPQDKDLKPNLQIGIHWYINRNLYVRFGGDDLLNSKLRGFFGGVGLEFVDEDLKYLLGGIGVPIR”, the “soluble on expression in E. coli” value was “not soluble”.
